Laboratory results reported in US20170342155A1 (Amgen, published 2017).
Numbering of substitutions follows the chain as printed.

Columns and labels:
[1] = molecular target: T1, wild-type human CCR7 (pcDNA3.1 Neo-hCCR7, 20100121357) (human, UniProt P32248 25-378); test: hybridoma screening on cells expressing human CCR7
T1 construct: Expressed on transfected 293T, CHO AM1/D or HEK293T cells; also called huCCR7; CCR7 receptor
T1 sequence: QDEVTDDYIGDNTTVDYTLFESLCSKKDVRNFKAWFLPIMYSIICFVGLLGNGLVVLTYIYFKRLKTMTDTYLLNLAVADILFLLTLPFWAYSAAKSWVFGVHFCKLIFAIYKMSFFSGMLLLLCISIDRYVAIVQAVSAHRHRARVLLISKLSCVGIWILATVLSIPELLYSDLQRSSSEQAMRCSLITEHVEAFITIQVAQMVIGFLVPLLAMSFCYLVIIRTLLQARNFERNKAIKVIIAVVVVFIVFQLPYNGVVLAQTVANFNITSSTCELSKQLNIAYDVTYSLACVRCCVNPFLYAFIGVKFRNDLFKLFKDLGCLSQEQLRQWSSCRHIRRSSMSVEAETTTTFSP

[2] = molecular target: T2, human CCR7 variant S295N (20110018205) (human, UniProt P32248 25-378); test: flow cytometry on transfected 293T cells, PE secondary antibody, geo mean
T2 sequence: T1 sequence with S271N

[3] = molecular target: T3, human CCR7 variant S202N (20110009483) (human, UniProt P32248 25-378); test: as above
T3 sequence: T1 sequence with S178N

[4] = molecular target: T4, human CCR7 variant T297S (20110018203) (human, UniProt P32248 25-378); test: as above
T4 sequence: T1 sequence with T273S

[5] = molecular target: T5, human CCR7 variant A207T (20100171270) (human, UniProt P32248 25-378); test: as above
T5 sequence: T1 sequence with A183T

[6] = molecular target: T6, human CCR7 variant M208L (20100171271) (human, UniProt P32248 25-378); test: as above
T6 sequence: T1 sequence with M184L

[7] = molecular target: T7, human CCR7 variant F128L (20100126472) (human, UniProt P32248 25-378); test: as above
T7 sequence: T1 sequence with F104L

Measured: binding result

B1: antibody 6B4.1 (antibody, V domains shown)
VH: QVQLVESGGGVVQPGRSLRLSCAASGFTFSSYGMHWVRQAPGKGLEWVAVIWYDGSKKYYADSVKGRFTISRDNSKNTLYLQMNRLRAEDTAVYYCARDGGIAVFLQDNWFDPWGQGTLVTVSS
VL: SYELTQPPSVSVSPGQRARITCSGDKLGDKYASWYQQKPGQSPLLVIYQDSKRPSGIPERFSGSNSGNTATLTISGTQAMDEADYYCQAWGSSTVIFGGGTKLTVLG
notes: Human antibody from XenoMouse hybridoma; Light = 2 and heavy = 42 is inferred from the order of the listing (light chains first)
binds: all assays above

B2: antibody 6B5.1 (antibody, human IgG2, lambda, V domains shown)
VH: B1 VH with S30R, Q107E
VL: B1 VL with R19S, S51G
notes: Human antibody from XenoMouse hybridoma; Light = 18 and heavy = 50 is inferred from the order of the listing
not listed: [1]
binds: all other assays above
